Measured values as given in patent publication US20050250935A1 (priority 2004, published 2005).

human follicle—stimulating hormone [FSH]
estimated FSH activity, in vivo biological assay in rat: 6578 IU per mg protein | FSH activity in the lower sample after centrifugation, in vivo test (rat): undetectable | FSH activity in the upper sample after centrifugation, in vivo test (rat): 97%
